{
  "source": "paper PMC2971551",
  "biological_target": "truncated neck domain fragment of DC-SIGNR (neck lacking the N-terminal non-repeat region and the first half of the first repeat unit) (human)",
  "assay": "SEC; gel filtration of the purified truncated fragment; profile superimposed on that of the previously described DC-SIGN extracellular domain",
  "data": [
    {"substance": "truncated neck domain fragment of DC-SIGNR (neck lacking the N-terminal non-repeat region and the first half of the first repeat unit) (domain or fragment)", "values": [
      {"measurement": "stoichiometry N", "result": 4}
    ]}
  ]
}
